Earlier results as cited in publication PMC1079850.

Target: Tsr (Escherichia coli) (UniProt P02942)
Assay: given as Ka

Sequence of CheR (P07364 whole entry): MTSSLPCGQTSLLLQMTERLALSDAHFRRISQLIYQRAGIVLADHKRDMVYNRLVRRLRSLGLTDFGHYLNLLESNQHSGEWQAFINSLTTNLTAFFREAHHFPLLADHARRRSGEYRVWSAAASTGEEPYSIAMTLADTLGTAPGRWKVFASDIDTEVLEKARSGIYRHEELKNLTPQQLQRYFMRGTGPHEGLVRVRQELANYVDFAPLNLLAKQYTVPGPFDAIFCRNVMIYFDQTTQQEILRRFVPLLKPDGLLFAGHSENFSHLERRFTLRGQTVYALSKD
Sequence of Tsr (Escherichia coli) (P02942 whole entry): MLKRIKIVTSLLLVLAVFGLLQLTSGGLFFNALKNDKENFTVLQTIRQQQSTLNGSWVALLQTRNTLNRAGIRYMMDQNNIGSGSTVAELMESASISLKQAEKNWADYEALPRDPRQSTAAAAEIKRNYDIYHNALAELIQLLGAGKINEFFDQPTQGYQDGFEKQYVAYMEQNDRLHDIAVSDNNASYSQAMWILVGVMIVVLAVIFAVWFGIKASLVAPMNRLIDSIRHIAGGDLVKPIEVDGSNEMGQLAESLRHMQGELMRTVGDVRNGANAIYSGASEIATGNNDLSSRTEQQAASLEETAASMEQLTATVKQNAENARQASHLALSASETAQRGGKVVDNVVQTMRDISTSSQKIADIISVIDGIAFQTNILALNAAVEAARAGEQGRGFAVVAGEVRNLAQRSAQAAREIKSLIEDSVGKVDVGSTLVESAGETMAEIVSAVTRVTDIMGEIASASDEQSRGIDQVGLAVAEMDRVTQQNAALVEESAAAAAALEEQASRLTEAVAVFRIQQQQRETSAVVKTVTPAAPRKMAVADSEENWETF

Kd: 2.5 µM
Substance: CheR (from UniProt P07364)
